# Source: the supplement of paper PMC10567573
# B1: PPEF2 (parent)
# chain: DHSGFISLDEFRQTWKLFSSHMNI
# Variants of: B1
# Test: protein stability index of a GFP-peptide fusion (GPS, HEK-293T) (PSI 1-6); higher = more stable
# Details: c terminus: a fixed tail appended
# 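Also: lentivirally expressed fusions sorted by FACS into six bins by GFP to DsRed ratio, PSI derived from sequencing read proportions per bin multiplied by bin number.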
row,Variant,protein stability index
1,W15Y,2.15
2,W15C,2.39
3,W15N,2.06
4,W15R,1.62
5,W15S,1.81
6,W15K,2.36
7,W15H,1.76
8,W15L,1.88
9,W15T,2.58
10,W15D,2.3
11,W15A,1.67
12,W15V,2.1
13,W15P,1.81
14,W15G,1.84
15,W15E,1.96
16,W15I,1.77
17,W15Q,2.25
18,W15F,2.07
19,W15M,2.79
20,F11E,2.37
21,F11M,2.14
22,F11S,1.68
23,F11Y,2.19
24,F11D,1.61

row,Variant,protein stability index
1,F11N,1.51
2,F11R,2.01
3,F11Q,1.56
4,F11G,2.52
5,F11V,2.07
6,F11L,3.54
7,F11C,1.94
8,F11A,1.32
9,F11H,1.95
10,F11W,1.64
11,F11I,1.79
12,F11K,1.64
13,F11P,1.85
14,F11T,1.74
15,L8Y,1.87
16,L8W,2.06
17,L8R,1.93
18,L8T,2.09
19,L8V,2.74
20,L8S,1.75
21,L8Q,2.01
22,Q13H,1.87
23,Q13G,1.96
24,Q13W,2.52

row,Variant,protein stability index
1,Q13I,3.27
2,Q13D,1.61
3,Q13F,3.91
4,Q13V,2.95
5,Q13E,2.36
6,Q13S,2.13
7,Q13Y,1.45
8,Q13N,2.65
9,Q13A,1.73
10,Q13L,3.59
11,Q13P,2.35
12,Q13R,2.03
13,Q13K,1.68
14,Q13T,3.18
15,Q13M,3.2
16,D9E,2.29
17,D9C,2.73
18,D9F,2.48
19,D9M,2.67
20,D9L,3.39
21,D9K,2.1
22,D9A,3.05
23,D9Y,1.51
24,D9N,1.51

row,Variant,protein stability index
1,D9R,1.92
2,D9H,1.87
3,D9S,1.84
4,D9P,1.21
5,D9I,3.32
6,D9Q,2.2
7,D9V,2.94
8,D9T,2.24
9,D9G,2.82
10,D9W,2.75
11,R12K,1.89
12,R12H,1.86
13,R12A,1.87
14,R12M,2.38
15,R12N,1.81
16,R12S,2.04
17,R12Q,1.38
18,R12W,2.39
19,R12F,3.28
20,R12V,2.88
21,R12P,1.61
22,R12C,1.74
23,R12E,1.62
24,R12D,2.06

row,Variant,protein stability index
1,R12L,1.53
2,R12I,2.73
3,R12T,2.98
4,R12Y,2.69
5,R12G,2.79
6,K16H,1.74
7,K16F,1.94
8,K16Y,3.45
9,K16S,1.81
10,K16E,1.73
11,K16G,1.32
12,K16A,1.88
13,K16R,2.02
14,K16N,1.69
15,K16L,3.93
16,K16V,2.6
17,K16I,3.37
18,K16C,2.15
19,K16M,1.01
20,K16W,3.62
21,K16T,3.38
22,K16D,1.71
23,K16Q,1.74
24,K16P,2.07

row,Variant,protein stability index
1,E10A,2.48
2,E10H,2.25
3,E10V,2.88
4,E10T,2.37
5,E10M,2.26
6,E10I,1.58
7,E10L,2.49
8,E10N,2.85
9,E10S,1.35
10,E10W,1.87
11,E10D,1.71
12,E10P,2.26
13,E10G,1.26
14,E10K,1.79
15,E10Y,1.82
16,E10C,1.95
17,E10R,1.6
18,E10Q,1.96
19,E10F,1.72
20,T14C,2.88
21,T14K,1.93
22,T14L,1.66
23,T14S,2.14
24,T14Y,1.49

row,Variant,protein stability index
1,T14H,2
2,T14V,1.93
3,T14E,1.87
4,T14W,1.39
5,T14F,1.83
6,T14P,2.17
7,T14D,1.71
8,T14M,1.85
9,T14N,1.91
10,T14I,1.83
11,T14R,2.38
12,T14G,1.69
13,T14A,2
14,T14Q,2.08
15,L17D,2.27
16,L17E,2.11
17,L17I,3.24
18,L17A,2.07
19,L17H,1.66
20,L17K,1.81
21,L17C,1.59
22,L17G,1.5
23,L17F,3.02
